Patent publication US20250101107A1 (REPERTOIRE IMMUNE MEDICINES, published 2025)

B1: H6K3-IgG-IL12 (1×HC) (other)
heavy 1: EVQLVQSGAEVKKPGATVKISCKASGYTFTDFTMHWVQQAPGKGLEWIGLVNPNNGGNIYAEKFQGRVTLTVDTSTSTAYMELSSLRSEDTAVYYCGRVPLYTSHGMDYWGQGTLVTVSSASTKGPSVFPLAPSSKSTSGGTAALGCLVKDYFPEPVTVSWNSGALTSGVHTFPAVLQSSGLYSLSSVVTVPSSSLGTQTYICNVNHKPSNTKVDKKVEPKSCDKTHTCPPCPAPEAAGGPSVFLFPPKPKDTLMISRTPEVTCVVVDVSHEDPEVKFNWYVDGVEVHNAKTKPREEQYASTYRVVSVLTVLHQDWLNGKEYKCKVSNKALGAPIEKTISKAKGQPREPQVYTLPPSRDELTKNQVSLWCLVKGFYPSDIAVEWESNGQPENNYKTTPPVLDSDGSFFLYSKLTVDKSRWQQGNVFSCSVMHEALHNHYTQKSLSLSPGKGGGSGGGGSGGGGSGGGGSIWELKKDVYVVELDWYPDAPGEMVVLTCDTPEEDGITWTLDQSSEVLGSGKTLTIQVKEFGDAGQYTCHKGGEVLSHSLLLLHKKEDGIWSTDILKDQKEPKNKTFLRCEAKNYSGRFTCWWLTTISTDLTFSVKSSRGSSDPQGVTCGAATLSAERVRGDNKEYEYSVECQEDSACPAAEESLPIEVMVDAVHKLKYENYTSSFFIRDIIKPDPPKNLQLKPLKNSRQVEVSWEYPDTWSTPHSYFSLTFCVQVQGKSKREKKDRVFTDKTSATVICRKNASISVRAQDRYYSSSWSEWASVPCSGGGSGGGSGGGSGGGSRNLPVATPDPGMFPCLHHSQNLLRAVSNMLQKARQTLEFYPCTSEEIDHEDITKDKTSTVEACLPLELTKNESCLNSRETSFITNGSCLASRKTSFMMALCLSSIYEDLKMYQVEFKTMNAKLLMDPKRQIFLDQNMLAVIDELMQALNFNSETVPQKSSLEEPDFYKTKIKLCILLHAFRIRAVTIDRVMSYLNAS
heavy 2: EVQLVQSGAEVKKPGATVKISCKASGYTFTDFTMHWVQQAPGKGLEWIGLVNPNNGGNIYAEKFQGRVTLTVDTSTSTAYMELSSLRSEDTAVYYCGRVPLYTSHGMDYWGQGTLVTVSSASTKGPSVFPLAPSSKSTSGGTAALGCLVKDYFPEPVTVSWNSGALTSGVHTFPAVLQSSGLYSLSSVVTVPSSSLGTQTYICNVNHKPSNTKVDKKVEPKSCDKTHTCPPCPAPEAAGGPSVFLFPPKPKDTLMISRTPEVTCVVVDVSHEDPEVKFNWYVDGVEVHNAKTKPREEQYASTYRVVSVLTVLHQDWLNGKEYKCKVSNKALGAPIEKTISKAKGQPREPQVYTLPPSRDELTKNQVSLSCAVKGFYPSDIAVEWESNGQPENNYKTTPPVLDSDGSFFLVSKLTVDKSRWQQGNVFSCSVMHEALHNHYTQKSLSLSPGK
light: EIVLTQSPATLSLSPGERATISCRASESVDSYDINSMHWYQQKPGQAPRLLIYRASHLQSGIPARFSGSGSRTDFTLTISSLEPEDFATYYCQQSNEDPLTFGQGTKLEIKRTVAAPSVFIFPPSDEQLKSGTASVVCLLNNFYPREAKVQWKVDNALQSGNSQESVTEQDSKDSTYSLSSTLTLSKADYEKHKVYACEVTHQGLSSPVTKSFNRGEC
notes: also called hCD8IgG-1×IL12 (HC); hCD8IgG-IL12 (1 × HC)
B2: rIL-12 (ligand)
alpha: RVIPVSGPARCLSQSRNLLKTTDDMVKTAREKLKHYSCTAEDIDHEDITRDQTSTLKTCLPLELHKNESCLATRETSSTTRGSCLPPQKTSLMMTLCLGSIYEDLKMYQTEFQAINAALQNHNHQQIILDKGMLVAIDELMQSLNHNGETLRQKPPVGEADPYRVKMKLCILLHAFSTRVVTINRVMGYLSSA
beta: MWELEKDVYVVEVDWTPDAPGETVNLTCDTPEEDDITWTSDQRHGVIGSGKTLTITVKEFLDAGQYTCHKGGETLSHSHLLLHKKENGIWSTEILKNFKNKTFLKCEAPNYSGRFTCSWLVQRNMDLKFNIKSSSSSPDSRAVTCGMASLSAEKVTLDQRDYEKYSVSCQEDVTCPTAEETLPIELALEARQQNKYENYSTSFFIRDIIKPDPPKNLQMKPLKNSQVEVSWEYPDSWSTPHSYFSLKFFVRIQRKKEKMKETEEGCNQKGAFLVEKTSTEVQCKGGNVCVQAQDRYYNSSCSKWACVPCRVRS
notes: also called rmIL-12; non-targeted recombinant mouse IL-12; copies: 1 + 1

Key:
[1] = target: T1, cynomolgus monkey CD8 on cynomolgus cells (cynomolgus monkey); test: cell-based or functional assay
[2] = target: T2, human CD8 on human T cells (human, UniProt P01732 22-235; P10966 22-210); test: flow cytometry, human PBMCs incubated 30 min at 37 C with the fusion protein, AF647 anti-human IL-12, gated on CD8+ T cells
T2 construct: whole, on cells; Target as carried by human CD3+/CD8+ T cells, PBMCs or MART-1-specific T cells; the mice were immunized with human CD8a; also called hCD8; CD8 expressed on the cell surface
T2 sequence (P01732 22-235, chain 1 of 2): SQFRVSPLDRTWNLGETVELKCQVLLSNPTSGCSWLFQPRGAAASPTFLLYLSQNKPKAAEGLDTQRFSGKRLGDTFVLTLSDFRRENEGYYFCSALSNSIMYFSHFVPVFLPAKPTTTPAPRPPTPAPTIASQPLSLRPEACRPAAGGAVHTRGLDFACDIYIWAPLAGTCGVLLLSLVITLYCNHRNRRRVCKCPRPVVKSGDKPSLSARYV
T2 sequence (P10966 22-210, chain 2 of 2): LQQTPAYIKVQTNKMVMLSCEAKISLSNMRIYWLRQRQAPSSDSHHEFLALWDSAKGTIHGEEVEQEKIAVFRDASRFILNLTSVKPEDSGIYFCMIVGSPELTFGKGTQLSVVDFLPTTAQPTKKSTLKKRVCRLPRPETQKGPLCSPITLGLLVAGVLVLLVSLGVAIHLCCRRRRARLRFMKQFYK
Description: Fusion proteins H6K3-IgG-IL12 (LC) and H6K3-IgG-IL12 (1×HC) were evaluated for their ability to selectively bind human CD8+ T cells in PBMCs. Briefly, 5×10⁴ human PBMCs (StemCell Technologies) were incubated with 7 serial 5-fold dilutions of one of the two aforementioned H6K3-IgG-IL12 constructs for 30 minutes at 37° C. Cells were washed twice with MACS buffer and stained for 20 minutes at 4° C. with fluorophore-conjugated anti-CD3, anti-CD4, anti-CD8, anti-CD56, and anti-IL12 antibodies, and viability dye. Cells were analyzed on a FACSCelesta using Diva software (BD Biosciences). Binding activity was quantified and represented as the mean fluorescent intensity values of IL-12 on either CD8+ T cells or NK Cells. As shown in FIGS. 16A-16B, both H6K3-IgG-IL12 (LC) and H6K3-IgG-IL12 (1×HC) were able to selectively bind human CD8+ T cells over NK cells at a range of concentrations.

[3] = target: T2, human CD8 on human T cells; test: cell-based or functional assay
[4] = target: T1, cynomolgus monkey CD8 on cynomolgus …; test: flow cytometry, cynomolgus PBMCs incubated 30 min at 37 C with the fusion protein, anti-IL-12, gated on CD8+ T cells
Description: (§1) Fusion proteins H6K3-IgG-IL12 (LC) and H6K3-IgG-IL12 (1×HC) were also evaluated for their ability to bind CD8-expressing cells in human and cynomolgus monkey PBMCs. Briefly, 5×10⁴ human PBMCs (StemCell Technologies) or cynomolgus monkey PBMCs (iQ Biosciences) were incubated with 7 serial 5-fold dilutions of one of the two aforementioned H6K3-IgG-IL12 constructs for 30 minutes at 37° C. Cells were washed twice with MACS buffer and stained with viability dye and fluorophore-conjugated antibodies against IL-12 and cell-surface markers for 20 minutes at 4° C. Cells were analyzed on a FACSCelesta using Diva software (BD Biosciences). Binding activity for all treatments was quantified and represented as the mean fluorescence intensity values of IL-12 on human CD8+ T cells and NK cells (FIGS. 17A-17B) and on cynomolgus monkey CD8+ T cells and NK cells (FIGS. 17C-17D). For the H6K3-IgG-IL12 (LC) treatments, results are also reported as the frequency of IL-12+CD8+ T cells and NK cells (FIG. 17E). As shown in FIGS. 17A-17D, both H6K3-IgG-IL12 (LC) and H6K3-IgG-IL12 (1×HC) were able to selectively bind human CD8+ T cells over NK cells at a range of concentrations. Only a small proportion of human NK cells express CD8, and therefore the H6K3-IgG-IL12 (LC) construct only bound a small proportion of human NK cells (FIG. 17E upper left and upper right). […]

[5] = target: T2, human CD8 on human T cells; test: flow cytometry, human PBMCs incubated 30 min at 37 C with the fusion protein, anti-IL-12, gated on CD8+ T cells
Description: as §1

[6] = target: T1, cynomolgus monkey CD8 on cynomolgus …; test: flow cytometry, cynomolgus PBMCs incubated 30 min at 37 C with the fusion protein, anti-IL-12, gated on NK cells, which express CD8 in the cynomolgus monkey
Description: as §1

mouse CD8 on mouse cells = target: T3, mouse CD8 on mouse cells (mouse, UniProt P01731 28-247); test: in vivo, B16F10 tumour-bearing mice, flow cytometry of peripheral blood 4 days after the first i.v. dose; % IL-12p40+ of CD8+ T cells
T3 construct: whole, on cells; Carried by CD8+ T cells and CD8+ dendritic cells of C57BL/6 mice, read ex vivo after dosing; also called mCD8
T3 sequence (P01731 28-247): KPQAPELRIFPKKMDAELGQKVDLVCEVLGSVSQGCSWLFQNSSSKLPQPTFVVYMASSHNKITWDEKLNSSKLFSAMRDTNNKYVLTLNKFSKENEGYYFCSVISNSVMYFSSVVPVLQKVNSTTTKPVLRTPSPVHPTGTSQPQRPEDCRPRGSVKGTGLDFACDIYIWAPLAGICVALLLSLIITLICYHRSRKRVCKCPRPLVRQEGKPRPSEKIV
Description: Mice were injected weekly for a total of 4 doses, at a dose equivalent to 10 μg of recombinant IL12. Tumor volume was measured twice per week, and mice were euthanized if tumor volume exceeded 2000 mm³. […] Specifically, in the MC38 model, treatment with the CD8IgG-IL12 (LC) Clone 2 construct controlled tumor growth up to day 21 and yielded 3/8 complete responders, whereas treatment with the CD8IgG-IL12 (1×HC) construct controlled tumor growth for the entire duration of the study and yielded 7/8 complete responders (FIGS. 6A-6C). In the B16-F10 model, which is typically less responsive to immunotherapy, both constructs limited tumor growth for up to 14 days after the initial dose (FIGS. 7A-7C).
In the same study, the two anti-CD8:IL-12 fusion constructs were also evaluated for their ability to be retained in tissues. Peripheral blood cells were collected from MC38 and B16-F10 tumor-bearing mice 4 days after administration of the first dose of the IL-12 construct. Samples were analyzed by flow cytometry. In the case of the MC38 tumor-bearing mice, IL-12 was detected on the surface of CD8⁺ T cells 4 days post-treatment with either of the two anti-CD8:IL-12 fusion protein constructs, but not on the surface of CD4⁺ T cells or NK cells (FIG. 8A). […]

Binder	EC50 for stimulation of pSTAT4 signaling, cynomolgus CD8+ T cells in activated PBMCs [1]	EC50 for stimulation of pSTAT4 signaling, cynomolgus NK cells in activated PBMCs [1]	EC50 (read off the curve) [2]	EC50 for stimulation of pSTAT4 signaling, human CD8+ T cells in activated PBMCs [3]	EC50 (read off the curve) [4]	EC50 (read off the curve) [5]	EC50 (read off the curve) [6]	binding result (mouse CD8 on mouse cells)
B1	2.3 pM	2 pM	~0.06 nM	2.3 pM	~0.05 nM	~0.04 nM	~0.09 nM	–
B2	–	–	–	–	–	–	–	no binding
